According to US20230331848A1 (BIOSION, published 2023):

B1: mouse anti-PD-1 monoclonal antibody E1G5D1H1 (antibody, V domains shown)
VH: EVQLVESGGGLVKPGGSLKLSCAASGFTFSDFYMYWVRQTPEKRLEWVATISNSGTQTYYLDSVKGRFTISRDNAKNNLYLQMSSLKSEDTAMYYCARDYYRYDSWYFDVWGAGTTVTVSS
VL: DIVLTQSPASLAVSQGQRATISCRASESVDFYGTSLMQWFQLKPGQPPKLLIYAASNVESGVPARFSGSGSGTNFSLNIHPVEEDDIAMYFCQQSRKVPWTFGGGTNLEIK
notes: Hybridoma-derived mouse mAb; also called EIG5D1H1; E1G5DIH1
B2: mouse anti-PD-1 monoclonal antibody E1A9C8A7 (antibody, V domains shown)
VH: QVQLQQSGAEVVRPGVSVRISCKGSGYTFSDYVMHWMKQSHGESLEWIGVISTYHIPAVYNQKFKGKATMTVDKSSSTVYLELARLTSEDSAIYYCAREVYGDSYYFDVWGAGTTVTVSS
VL: DVLMTQIPLSLPVSLGDQVSISCRSSQSIVHSNGNTYLEWYLQKPGQSPKLLIYKVSNRFSGVPDRFSGSGSGTDFTLKISRVEAEDLGVYYCFQGSHVPYTFGGGTKLEIK
notes: Hybridoma-derived mouse mAb purified on Protein A; also called Mouse E1A9C8A7

Legend:
[1] = target: T1, cynomolgus PD-1-his protein (Cat#:PD1-05223, Acro biosystems Inc.) (cynomolgus, UniProt B0LAJ3 25-170); assay: indirect ELISA on coated cynomolgus PD-1-his; unit from the axis 'Con of mAb, nM.'
T1 construct: Bought protein used in Biacore and indirect ELISA; also called monkey PD-1; Cyno PD-1
Procedure: Briefly, 96-well micro plates were coated with 100 μl 2 μg/ml mouse PD-1-his (Cat#:50124-M08H, Sino Biological Inc) or 2 μg,/ml cynomolgus PD-1-his (Cat#:PD1-05223, Acro biosystems Inc.) in carbonate/bicarbonate buffer (pH 9.6) for 2 hours at 37° C. Plates were washed once with wash buffer (PBST, PBS+0.05% Tween-20) and then blocked with 200 μl blocking buffer (5% w/v non-fatty milk in PBST) for 2 hours at 37° C. […] ELISA plates were washed 4 times and incubated with Peroxidase AffiniPure goat anti-mouse IgG, Fcγ Fragment Specific (1:5000 dilution in PBST buffer, Cat#:115-035-071, Jackson ImmunoResearch Laboratories, Inc., 100 μl/well) or Peroxidase AffiniPure F(ab′)₂ Fragment Goat Anti-Human IgG, Fcγ fragment specific (Cat#:109-036-098, Jackson ImmunoResearch, for the controls) for 40 minutes at 37° C. After a final wash, plates were incubated with 100 μl/well TMB (Cat#:TMB-S-002, innoreagents) at room temperature. The reaction was stopped 3-10 minutes later with 50 μl/well 1M H₂SO₄, and the absorbance was read on a microplate reader using dual wavelength mode with 450 nm for TMB and 630 nm as the reference wavelength. Then the OD (450-630) values were plotted against antibody concentrations. Data was analyzed using GraphPad Prism software and EC₅₀ values were reported.

[2] = target: T2, in house made human PD-1-Fc protein (human, biotin-labeled (sites not given)); assay: competitive ELISA: antibody pre-mixed with biotin-labeled human PD-1-Fc, added to coated human PD-L1-Fc (blocked ligand); unit from the axis 'Con of mAb, nM.'
T2 construct: also called biotin-labeled human PD-1-Fc
Procedure: The activities of the anti-PD1 antibodies of the disclosure to block PD-L1-PD1 binding were measured in a competitive ELISA.
(§1) Briefly, 100 μl human PD-L1-Fc protein (prepared in-house with SEQ ID NO: 28) at 2 μg/mL in carbonate/bicarbonate buffer (pH 9.6) was coated on 96-well micro plates overnight at 4° C., Plates were washed with wash buffer (PBS+0.05% w/v Tween-20, PBST), and blocked with 5% w/v non-fatty milk in PBST for 2 hours at 37° C. […] After incubation at 37° C. for 40 minutes, plates were washed using wash buffer. […] Plates were washed again using wash buffer. Finally, TMB was added and the reaction was stopped using 1M H₂SO₄. The absorbance was read on a microplate reader using dual wavelength mode with 450 nm for TMB and 630 nm as the reference wavelength, then the OD (450-630) values were plotted against antibody concentrations. Data was analyzed using Graphpad Prism software and IC₅₀ values were reported.

[3] = target: T3, human PD-1 expressed on GS-J2/PD-1 cells (Genscript) (human, UniProt Q15116 25-288); assay: cell-based or functional assay
[4] = target: T3, human PD-1 expressed on GS-J2/PD-1 …; assay: flow cytometry on GS-J2/PD-1 cells
Procedure: In specific, the 293F-mouse PD-1 cells and GS-J2/PD-1 cells were respectively harvested from cell culture flasks, washed twice and re-suspended in PBS containing 2% v/v Fetal Bovine Serum (FACS buffer). Then, 2×10⁵ cells per well were incubated in 96 well-plates with 100 μl of the anti-PD1 antibodies or controls at various concentrations for 40 minutes on ice. […] Following an incubation of 40 minutes at 4° C. in dark, cells were washed three times and re-suspended in FACS buffer. Fluorescence was measured using a Becton Dickinson FACS Canto II-HTS equipment and plotted against antibody concentrations. Data was analyzed using GraphPad Prism software and EC₅₀ values were reported.
For the cell-based binding FACS, R-Phycoerythrin AffiniPure Goat Anti-human IgG Fcγ fragment specific (Cat#:109-115-098, Jackson ImmunoResearch) was used for the humanized antibodies, with 1:1000 dilution in FACS buffer, 100 μl/well.

[5] = target: T4, human PD-1-his protein prepared in-house (human, UniProt Q15116 25-167, biotin-labeled (sites not given)); assay: capture ELISA, antibody captured, biotin human PD-1-his detected
T4 construct: also called biotin labeled human PD-1-his
Procedure: Briefly, 96-well micro plates were coated with 100 μl 2 μg/ml AffiniPure Goat Anti-Mouse IgG F(ab′)₂ fragment specific (Cat#:115-005-072, Jackson lmmunoResearch) or Goat-anti-human IgG (Cat#:109-005-097, Jackson ImmunoResearch, for the positive control and negative control) in PBS overnight at 4° C. Plates were washed once with wash buffer (PBST, PBS+0.05% Tween-20) and then blocked with 200 μl/well blocking buffer (5% w/v non-fatty milk in PBST) for 2 hours at 37° C. […] After a final wash, plates were incubated with 100 μl/well TMB (Cat#:TMB-S-002, Innoreagents) at room temperature.
For the capture ELISA, 96-well plates were coated with 100 μl 2 μg/ml AffiniPure Goat Anti-Human IgG, Fcγ fragment specific (Cat#:109-005-098, Jackson Immunoresearch) instead of AffiniPure goat-anti-mouse IgG F(ab′)₂ fragment specific.

[6] = target: T2, in house made human PD-1-Fc protein; assay: competitive ELISA: biotin human PD-1-Fc + antibody on coated human PD-L1-Fc (competitor)
Procedure: as §1

[7] = target: T2, in house made human PD-1-Fc protein; assay: blocking FACS: biotin human PD-1-Fc + antibody on GS-C2/PD-L1 cells (competitor: cell-surface human PD-L1)

Row | Binder | EC50 [1] | IC50 [2] | Cell-based functional assay (EC50, nM) [3] | EC50 [4] | EC50 [5] | IC50 [6] | IC50 [7]
1 | B1 | 142 pM | 434 pM |  |  |  |  | 
2 | B2 |  |  | 6.62 nM | 440 pM | 140 pM | 370 pM | 420 pM
